Reference: patent US20230272048A1

What was measured:
Assay in all cases: capture ELISA on Env of lysed AD8 pseudovirus, % of WT
A329K (HIV-1) = molecular target: A329K (HIV-1)
[1] = molecular target: AD8 Env D279A (HIV-1 AD8, clade B)
[2] = molecular target: AD8 Env D368A (HIV-1 AD8, clade B)
[3] = molecular target: AD8 Env D457A (HIV-1 AD8, clade B)
[4] = molecular target: AD8 Env D474A (HIV-1 AD8, clade B)
[5] = molecular target: AD8 Env E370A (HIV-1 AD8, clade B)
[6] = molecular target: AD8 Env G366A (HIV-1 AD8, clade B)
[7] = molecular target: AD8 Env G471A (HIV-1 AD8, clade B)
[8] = molecular target: AD8 Env G473A (HIV-1 AD8, clade B)
[9] = molecular target: AD8 Env I371A (HIV-1 AD8, clade B)
[10] = molecular target: AD8 Env N332T (HIV-1 AD8, clade B)
[11] = molecular target: AD8 Env T455A (HIV-1 AD8, clade B)
[12] = molecular target: AD8 Env V372A (HIV-1 AD8, clade B)
D185A (HIV-1) = molecular target: D185A (HIV-1)
E87A (HIV-1) = molecular target: E87A (HIV-1)
G472A (HIV-1) = molecular target: G472A (HIV-1)
K121A (HIV-1) = molecular target: K121A (HIV-1)
K282A (HIV-1) = molecular target: K282A (HIV-1)
L179A (HIV-1) = molecular target: L179A (HIV-1)
M373A (HIV-1) = molecular target: M373A (HIV-1)
M475A (HIV-1) = molecular target: M475A (HIV-1)
N197A (HIV-1) = molecular target: N197A (HIV-1)
N262A (HIV-1) = molecular target: N262A (HIV-1)
N276A (HIV-1) = molecular target: N276A (HIV-1)
N283A (HIV-1) = molecular target: N283A (HIV-1)
P369A (HIV-1) = molecular target: P369A (HIV-1)
Q363A (HIV-1) = molecular target: Q363A (HIV-1)
R419A (HIV-1) = molecular target: R419A (HIV-1)
R476A (HIV-1) = molecular target: R476A (HIV-1)
S364A (HIV-1) = molecular target: S364A (HIV-1)
S365A (HIV-1) = molecular target: S365A (HIV-1)
[13] = molecular target: AD8 Env G367A (HIV-1 AD8, clade B)
P313A (HIV-1) = molecular target: P313A (HIV-1)

Row | Substance | Env binding (%) at antibody EC50 (A329K (HIV-1)) [%] | Env binding (%) at antibody EC50 [1] [%] | Env binding (%) at antibody EC50 [2] [%] | Env binding (%) at antibody EC50 [3] [%] | Env binding (%) at antibody EC50 [4] [%] | Env binding (%) at antibody EC50 [5] [%] | Env binding (%) at antibody EC50 [6] [%] | Env binding (%) at antibody EC50 [7] [%] | Env binding (%) at antibody EC50 [8] [%] | Env binding (%) at antibody EC50 [9] [%] | Env binding (%) at antibody EC50 [10] [%] | Env binding (%) at antibody EC50 [11] [%] | Env binding (%) at antibody EC50 (D185A (HIV-1)) [%] | Env binding (%) at antibody EC50 (E87A (HIV-1)) [%] | Env binding (%) at antibody EC50 (G472A (HIV-1)) [%] | Env binding (%) at antibody EC50 (K121A (HIV-1)) [%] | Env binding (%) at antibody EC50 (K282A (HIV-1)) [%] | Env binding (%) at antibody EC50 (L179A (HIV-1)) [%] | Env binding (%) at antibody EC50 (M373A (HIV-1)) [%] | Env binding (%) at antibody EC50 (M475A (HIV-1)) [%] | also measured
1 | PGT121 (antibody) | 53 | 103 | 79 | 108 | 81 | 74 | 80 | 75 | 80 | 80 | 8 | 92 | 81 | 73 | 78 | 84 | 78 | 87 | 90 | 84 | Env binding (%) at antibody EC50 [12]: 83%; Env binding (%) at antibody EC50 (N197A (HIV-1)): 65%; Env binding (%) at antibody EC50 (N262A (HIV-1)): 75%; Env binding (%) at antibody EC50 (N276A (HIV-1)): 97%; Env binding (%) at antibody EC50 (N283A (HIV-1)): 75%; Env binding (%) at antibody EC50 (P369A (HIV-1)): 74%; Env binding (%) at antibody EC50 (Q363A (HIV-1)): 72%; Env binding (%) at antibody EC50 (R419A (HIV-1)): 82%; Env binding (%) at antibody EC50 (R476A (HIV-1)): 73%; Env binding (%) at antibody EC50 (S364A (HIV-1)): 82%; Env binding (%) at antibody EC50 (S365A (HIV-1)): 96%
2 | b12 (antibody) | 51 | 86 | 21 | 57 | 70 | 54 | 47 | 88 | 96 | 73 | 66 | 114 | 63 | 99 | 93 | 95 | 96 | 41 | 111 | 103 | Env binding (%) at antibody EC50 [13]: 68%; Env binding (%) at antibody EC50 (N197A (HIV-1)): 69%; Env binding (%) at antibody EC50 (N262A (HIV-1)): 52%; Env binding (%) at antibody EC50 (N276A (HIV-1)): 86%; Env binding (%) at antibody EC50 (N283A (HIV-1)): 98%; Env binding (%) at antibody EC50 (P313A (HIV-1)): 95%; Env binding (%) at antibody EC50 (P369A (HIV-1)): 90%; Env binding (%) at antibody EC50 (Q363A (HIV-1)): 77%; Env binding (%) at antibody EC50 (R419A (HIV-1)): 74%; Env binding (%) at antibody EC50 (R476A (HIV-1)): 79%; Env binding (%) at antibody EC50 (S364A (HIV-1)): 110%; Env binding (%) at antibody EC50 (S365A (HIV-1)): 64%
